Assay results from publication doi:10.1101/714097 (bioRxiv, 2019).
Read-outs that look alike come from different tables or passages of the source.

How the values were obtained:
cryo-EM structure [1] = target: the molecule itself; assay: cryo-EM structure
cryo-EM structure [2] = target: the molecule itself; assay: cryo-EM structure; remark: listed apart in the source

B1: SpaP (natural protein)
chain: MGNDISLIALLAFSTLLPFIIASGTCFVKFSIVFVMVRNALGLQQIPSNMTLNGVALLLSMFVMWPIMHDAYVYFEDEDVTFNDISSLSKHVDEGLDGYRDYLIKYSDRELVQFFENAQLKRQYGEETETVKRDKDEIEKPSIFALLPAYALSEIKSAFKIGFYLYLPFVVVDLVVSSVLLALGMMMMSPVTISTPIKLVLFVALDGWTLLSKGLILQYMDIAT
With B1 the “stoichiometry N” value (cryo-EM structure [1]) was 5.

B2: SpaQ (natural protein)
chain: MDDLVFAGNKALYLVLILSGWPTIVATIIGLLVGLFQTVTQLQEQTLPFGIKLLGVCLCLFLLSGWYGEVLLSYGRQVIFLALAKG
For B2, the “stoichiometry N” value (cryo-EM structure [1]) was 4.

B3: PrgH (natural protein)
chain: METSKEKTITSPGPYIVRLLNSSLNGCEFPLLTGRTLFVVGQSDALTASGQLPDIPADSFFIPLDHGGVNFEIQVDTDATEIILHELKEGNSESRSVQLNTPIQVGELLILIRPESEPWVPEQPEKLETSAKKNEPRFKNGIVAALAGFFILGIGTVGTLWILNSPQRQAAELDSLLGQEKERFQVLPGRDKMLYVAAQNERDTLWARQVLARGDYDKNARVINENEENKRISIWLDTYYPQLAYYRIHFDEPRKPVFWLSRQRNTMSKKELEVLSQKLRALMPYADSVNITLMDDVTAAGQAEAGLKQQALPYSRRNHKGGVTFVIQGALDDVEILRARQFVDSYYRTWGGRYVQFAIELKDDWLKGRSFQYGAEGYIKMSPGHWYFPSPL
In the case of B3, the “stoichiometry N” value (cryo-EM structure [1]) is reported as 24 and the “stoichiometry N” value (cryo-EM structure [2]) is reported as 23.

B4: InvG (natural protein)
chain: SEKIPVTGSGFVAKDDSLRTFFDAMALQLKEPVIVSKMAARKKITGNFEFHDPNALLEKLSLQLGLIWYFDGQAIYIYDASEMRNAVVSLRNVSLNEFNNFLKRSGLYNKNYPLRGDNRKGTFYVSGPPVYVDMVVNAATMMDKQNDGIELGRQKIGVMRLNNTFVGDRTYNLRDQKMVIPGIATAIERLLQGEEQPLGNIVSSEPPAMPAFSANGEKGKAANYAGGMSLQEALKQNAAAGNIKIVAYPDTNSLLVKGTAEQVHFIEMLVKALDVAKRHVELSLWIVDLNKSDLERLGTSWSGSITIGDKLGVSLNQSSISTLDGSRFIAAVNALEEKKQATVVSRPVLLTQENVPAIFDNNRTFYTKLIGERNVALEHVTYGTMIRVLPRFSADGQIEMSLDIEDGNDKTPQSDTTTSVDALPEVGRTLISTIARVPHGKSLLVGGYTRDANTDTVQSIPFLGKLPLIGSLFRYSSKNKSNVVRVFMIEPKEIVDPLTPDASESVNNILKQSGAWSGDDKLQKWVRVYLDRGQEAIK
For B4, the “stoichiometry N” value (cryo-EM structure [1]) was 16 and the “stoichiometry N” value (cryo-EM structure [2]) was 15.

B5: PrgK (natural protein)
chain: CKDKDLLKGLDQEQANEVIAVLQMHNIEANKIDSGKLGYSITVAEPDFTAAVYWIKTYQLPPRPRVEIAQMFPADSLVSSPRAEKARLYSAIEQRLEQSLQTMEGVLSARVHISYDIDAGENGRPPKPVHLSALAVYERGSPLAHQISDIKRFLKNSFADVDYDNISVVLSERSDAQLQAPGTPVKRNSFATSWIVLIILLSVMSAGFGVWYYKNHYARNKKGITADDKAKSSNE
With B5 the “stoichiometry N” value (cryo-EM structure [1]) was 24 and the “stoichiometry N” value (cryo-EM structure [2]) was 23.
